Assay results: patent US20240238439A1, “HER3-BINDING ANTIBODY-DRUG CONJUGATE” (priority 2023, published 2024)

Assays:
FCɣR IA (CD64) (human) = FCɣR IA (CD64) (human) (UniProt P12314); assay: SPR
FCɣR IIA (CD32a) (human) = FCɣR IIA (CD32a) (human) (UniProt P12318); assay: SPR
[1] = molecular target: HER3 on the surface of human cancer cell lines (HCT116, DU145, H358, T-47D, OVCAR8) (UniProt P21860); assay: flow cytometry; H358 cells
[2] = molecular target: HER3 on the surface of human cancer cell lines (HCT116, DU145, H358, T-47D, OVCAR8) (UniProt P21860); assay: flow cytometry; DU145 cells
[3] = molecular target: HER3 on the surface of human cancer cell lines (HCT116, DU145, H358, T-47D, OVCAR8) (UniProt P21860); assay: flow cytometry; HCT116 cells
[4] = molecular target: HER3 on the surface of human cancer cell lines (HCT116, DU145, H358, T-47D, OVCAR8) (UniProt P21860); assay: flow cytometry; OVCAR8 cells

Chain of FCɣR IA (CD64) (human) (P12314 16-288): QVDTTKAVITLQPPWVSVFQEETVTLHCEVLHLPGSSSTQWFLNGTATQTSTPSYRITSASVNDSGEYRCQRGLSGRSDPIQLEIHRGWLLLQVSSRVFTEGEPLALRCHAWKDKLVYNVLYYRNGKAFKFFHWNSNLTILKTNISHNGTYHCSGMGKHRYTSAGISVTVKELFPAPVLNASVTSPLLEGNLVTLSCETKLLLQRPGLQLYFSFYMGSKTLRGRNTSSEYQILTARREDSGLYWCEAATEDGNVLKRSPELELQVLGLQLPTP
Chain of FCɣR IIA (CD32a) (human) (P12318 34-217): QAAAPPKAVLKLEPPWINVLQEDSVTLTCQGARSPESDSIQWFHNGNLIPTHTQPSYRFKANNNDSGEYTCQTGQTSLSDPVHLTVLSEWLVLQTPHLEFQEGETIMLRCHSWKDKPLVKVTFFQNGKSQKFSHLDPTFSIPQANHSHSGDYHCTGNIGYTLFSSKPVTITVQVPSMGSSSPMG

| Kd (FCɣR IA (CD64) (human)) | Kd (FCɣR IIA (CD32a) (human)) | EC50 [1] | EC50 [2] | EC50 [3] | EC50 [4] | Substance |
| --- | --- | --- | --- | --- | --- | --- |
| 6.5 nM | 56.9 nM |  |  |  |  | Human IgG1 (+ve control) |
|  |  | 8.23 nM | 2.4 nM | 0.756 nM | 1.01 nM | Patritumab-DXd |
